Drawing on paper PMC10786891, “Massively parallel profiling of RNA-targeting CRISPR-Cas13d”, this text covers Kd for 27 molecules.

Where a chain is given by its changes, count along the chain named. Numbers in names are those of the source.

T1: EsCas13d, nuclease-dead (Eubacterium siraeum, UniProt B0MS50, R295A;H300A;R849A;H854A)
T1 sequence: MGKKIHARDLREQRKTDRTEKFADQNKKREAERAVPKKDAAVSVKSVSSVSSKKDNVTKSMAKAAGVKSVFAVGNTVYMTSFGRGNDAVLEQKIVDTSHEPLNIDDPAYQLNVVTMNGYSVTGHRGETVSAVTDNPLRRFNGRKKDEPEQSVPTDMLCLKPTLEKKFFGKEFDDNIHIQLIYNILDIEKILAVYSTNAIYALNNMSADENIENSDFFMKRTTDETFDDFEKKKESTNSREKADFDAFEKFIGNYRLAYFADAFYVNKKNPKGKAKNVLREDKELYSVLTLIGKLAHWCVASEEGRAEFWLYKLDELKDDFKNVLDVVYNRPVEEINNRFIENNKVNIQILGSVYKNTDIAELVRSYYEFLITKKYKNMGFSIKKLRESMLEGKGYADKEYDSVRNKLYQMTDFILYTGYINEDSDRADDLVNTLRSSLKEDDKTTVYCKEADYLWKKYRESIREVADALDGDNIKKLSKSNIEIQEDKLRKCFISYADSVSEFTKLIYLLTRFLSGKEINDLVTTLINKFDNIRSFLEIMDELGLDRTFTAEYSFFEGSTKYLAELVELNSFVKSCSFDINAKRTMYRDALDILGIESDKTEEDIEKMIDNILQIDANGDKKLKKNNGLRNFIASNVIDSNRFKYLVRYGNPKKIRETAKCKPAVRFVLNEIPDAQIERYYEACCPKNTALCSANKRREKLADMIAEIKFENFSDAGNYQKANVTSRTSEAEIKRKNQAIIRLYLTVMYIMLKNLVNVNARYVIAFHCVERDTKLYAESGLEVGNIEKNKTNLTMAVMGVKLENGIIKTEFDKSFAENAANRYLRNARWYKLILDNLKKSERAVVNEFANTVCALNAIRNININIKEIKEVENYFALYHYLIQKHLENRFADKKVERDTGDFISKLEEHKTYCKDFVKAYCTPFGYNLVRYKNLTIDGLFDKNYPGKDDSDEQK

B1: target 1 insC 3' of 14,insA 3' of 2 (mixed)
RNA 1: CACCCGUGCAAAAAUGCAGGGGUCUAAAACUGAGCGGAUAACCUCUCUAUGG
RNA 2: GGGAAUGGAUCCACAUCUACGAAUUCGUACCAUAGAGACGGUUAUCCGCUCAACCGAGAUCGGAAGAGCACACGU
B2: target 1 insC 3' of 20,insC 3' of 1 (mixed)
RNA 1: B1 RNA 1
RNA 2: B1 RNA 2 with U33C, A34U, G35A, A36G, G37A, A38G, C39A, A53C
B3: target 1 insG 3' of 18,insU 3' of 12 (mixed)
RNA 1: B1 RNA 1
RNA 2: GGGAAUGGAUCCACAUCUACGAAUUCGUACCAUAGGAGAGGUUUAUCCGCUCACCGAGAUCGGAAGAGCACACGU
B4: target 1 insU 3' of 7,insU 3' of 7 (mixed)
RNA 1: B1 RNA 1
RNA 2: B3 RNA 2 with G36A, A37G, G38A, A39G, G41U, U43A, A45C, C47U
B5: target 1 insA 3' of 19,insG 3' of 18 (mixed)
RNA 1: B1 RNA 1
RNA 2: B3 RNA 2 with G35A, A37G, G38A, A39G, G40A, U42G
B6: target 1 G13A,G17U (mixed)
RNA 1: B1 RNA 1
RNA 2: GGGAAUGGAUCCACAUCUACGAAUUCGUACCAUAUAGAAGUUAUCCGCUCACCGAGAUCGGAAGAGCACACGU
B7: target 1 insG 3' of 14,insC 3' of 12 (mixed)
RNA 1: B1 RNA 1
RNA 2: B3 RNA 2 with G36A, A37G, G38A, A39G, U42C
B8: target 1 del9,del15 (mixed)
RNA 1: B1 RNA 1
RNA 2: GGGAAUGGAUCCACAUCUACGAAUUCGUACCAUAGAAGGUUUCCGCUCACCGAGAUCGGAAGAGCACACGU
B9: target 1 C6U,G17U (mixed)
RNA 1: B1 RNA 1
RNA 2: B6 RNA 2 with A39G, C46U
B10: target 1 insU 3' of 20,insC 3' of 13 (mixed)
RNA 1: B1 RNA 1
RNA 2: B3 RNA 2 with A34U, G35A, G41C, U42G
B11: target 1 insC 3' of 14,insG 3' of 3 (mixed)
RNA 1: B1 RNA 1
RNA 2: B1 RNA 2 with C51G, A52C
B12: target 1 G5U,C7G (mixed)
RNA 1: B1 RNA 1
RNA 2: B6 RNA 2 with U35G, A39G, C45G, G47U
B13: target 1 insU 3' of 15,insU 3' of 13 (mixed)
RNA 1: B1 RNA 1
RNA 2: B3 RNA 2 with G36A, A37G, G38U, G41U, U42G
B14: target 1 insA 3' of 12 (mixed)
RNA 1: B1 RNA 1
RNA 2: GGGAAUGGAUCCACAUCUACGAAUUCGUACCAUAGAGAGGAUUAUCCGCUCACCGAGAUCGGAAGAGCACACGU
B15: target 1 insA 3' of 21,insG 3' of 19 (mixed)
RNA 1: B1 RNA 1
RNA 2: B3 RNA 2 with U33A, A34U, G36A, A37G, G38A, A39G, G40A, U42G
B16: target 1 insG 3' of 6,insC 3' of 3 (mixed)
RNA 1: B1 RNA 1
RNA 2: B1 RNA 2 with C39G, G41U, U43A, A44U, U45C, C47G, A52C
B17: target 1 insC 3' of 17,insG 3' of 6 (mixed)
RNA 1: B1 RNA 1
RNA 2: B3 RNA 2 with G36C, U44A, A45U, U46C, C48G
B18: target 1 insA 3' of 17,insC 3' of 12 (mixed)
RNA 1: B1 RNA 1
RNA 2: B3 RNA 2 with G36A, U42C
B19: target 1 insA 3' of 13,insC 3' of 11 (mixed)
RNA 1: B1 RNA 1
RNA 2: B3 RNA 2 with G36A, A37G, G38A, A39G, G40A, U43C
B20: target 1 C4G,C6G (mixed)
RNA 1: B1 RNA 1
RNA 2: B6 RNA 2 with U35G, A39G, C46G, C48G
B21: target 1 G12A,U19G (mixed)
RNA 1: B1 RNA 1
RNA 2: B6 RNA 2 with U33G, U35G, A39G, G40A
B22: target 1 insA 3' of 13,insC 3' of 5 (mixed)
RNA 1: B1 RNA 1
RNA 2: B1 RNA 2 with C39G, G40A, U50C, C51U, A52C
B23: target 1 insC 3' of 18,insG 3' of 16 (mixed)
RNA 1: B1 RNA 1
RNA 2: B3 RNA 2 with G35C, A39G, G40A, U42G
B24: target 1 insA 3' of 15,insU 3' of 7 (mixed)
RNA 1: B1 RNA 1
RNA 2: B1 RNA 2 with C39A, C47U, G48C, C49G, U50C, C51U, A52C
B25: target 1 insC 3' of 15,insG 3' of 6 (mixed)
RNA 1: B1 RNA 1
RNA 2: B1 RNA 2 with A38C, C39A, C49G, U50C, C51U, A52C
B26: target 1 insG 3' of 6,insA 3' of 5 (mixed)
RNA 1: B1 RNA 1
RNA 2: GGGAAUGGAUCCACAUCUACGAAUUCGUACCAUAGAGAGGUUAUCCGGACUCACCGAGAUCGGAAGAGCACACGU
B27: target 1 C2G,C4A (mixed)
RNA 1: B1 RNA 1
RNA 2: B6 RNA 2 with U35G, A39G, C48A, C50G

In the data set the target is T1, EsCas13d, nuclease-dead. Description: crRNA (strand 1, pre-loaded); Mg2+; 40 mM Tris-HCl pH 7.5, 150 mM NaCl, 6 mM MgCl2, 1 mM DTT, 0.1% Tween-20, 0.2 mg/ml BSA; 25 C; 10 min per concentration, then washed. To be noted: tags: His6-TwinStrep-SUMO cleaved; N-terminal SNAP kept (SNAP-Surface 488); label: 3' end held by stalled T7 RNA polymerase.
For orientation: Kd means the equilibrium constant for the complex coming apart. Turning to B1, binding was characterised by a dissociation constant (Kd) of 52 ± 13 nM.

As to B2, the affinity, expressed as Kd, was 8 ± 0.5 nM.

B3 displayed a Kd of 50 ± 6 nM.

In turn, B4 showed a Kd of 7.9 ± 0.4 nM. This Kd lies about 6.3-fold lower than the previous one.

B5 registered a Kd of 97 ± 30 nM.

With B6, the Kd was found to be 28.6 ± 2.7 nM.

With B7, the affinity, expressed as Kd, was 16.7 ± 0.9 nM.

B8 gave a Kd of 44 ± 6 nM.

In the case of B9, binding was characterised by a dissociation constant (Kd) of 22.3 ± 1.5 nM.

In turn, B10 had a Kd of 28 ± 3 nM.

In turn, B11 displayed a Kd of 25.6 ± 2.7 nM.

On to B12, for which binding was put at a Kd of 16.8 ± 0.9 nM. This Kd lies about 1.5-fold lower than the previous one.

As to B13, the Kd was 20 ± 7 nM.

For B14, the Kd came to 29.5 ± 2.9 nM.

In turn, B15 showed a Kd of 51 ± 5 nM. This Kd is about 1.7-fold higher than that of the molecule before.

In turn, B16 came in with a Kd of 13.7 ± 0.8 nM.

B17 gave a Kd of 43 ± 8 nM.

Turning to B18, the Kd was found to be 23 ± 4 nM.

Regarding B19, the Kd turned out to be 7.8 ± 0.6 nM.

Regarding B20, the Kd turned out to be 3.71 ± 0.17 nM.

B21 returned a dissociation constant Kd of 54 ± 15 nM.

B22 showed a Kd of 3.35 ± 0.18 nM.

In turn, B23 returned a Kd of 70 ± 13 nM.

B24 registered a Kd of 13.5 ± 0.9 nM.

As to B25, binding was characterised by a dissociation constant (Kd) of 22.1 ± 0.9 nM.

B26 yielded a Kd of 19.3 ± 1.8 nM. This Kd and that of the molecule before are within 1.5-fold of each other.

B27 displayed a Kd of 6.94 ± 0.32 nM. This Kd is about 2.8-fold lower than that of the molecule before.
